Experimental findings from PMC5632138 (Journal of molecular biology, 2017) are described below.

Residue numbers refer to the chain shown, from its start.

Holding throughout (experiment): BLI
In test [1] the target is T1, Full-length ETV4 (ETV4^1–484) (UniProt P43268 1-484).
T1 sequence (looked up): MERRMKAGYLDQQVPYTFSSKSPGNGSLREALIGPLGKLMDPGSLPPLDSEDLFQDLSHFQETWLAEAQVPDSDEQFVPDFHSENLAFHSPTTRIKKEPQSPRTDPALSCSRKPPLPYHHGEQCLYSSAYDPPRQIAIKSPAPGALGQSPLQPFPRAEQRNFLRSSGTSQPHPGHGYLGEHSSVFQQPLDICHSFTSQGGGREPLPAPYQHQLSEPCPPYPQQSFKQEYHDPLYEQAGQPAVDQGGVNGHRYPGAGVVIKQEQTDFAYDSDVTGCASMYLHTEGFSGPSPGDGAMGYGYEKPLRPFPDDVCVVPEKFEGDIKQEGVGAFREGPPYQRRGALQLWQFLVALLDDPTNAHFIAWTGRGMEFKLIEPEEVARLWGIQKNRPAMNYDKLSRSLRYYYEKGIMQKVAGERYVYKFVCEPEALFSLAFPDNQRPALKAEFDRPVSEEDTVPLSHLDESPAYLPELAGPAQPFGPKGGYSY

Test [2] has as its target T2, Full-length ETV4 Ile372Ala (UniProt P43268 1-484, Ile372Ala).
T2 sequence (looked up): T1 sequence (looked up) with I372A

The target in test [3] is T3, Full-length ETV4 Thr363Ala (UniProt P43268 1-484, Thr363Ala).
T3 sequence (looked up): T1 sequence (looked up) with T363A

In test [4] the target is Full-length FOS (UniProt P01100 1-380).
Sequence of Full-length FOS (P01100 whole entry): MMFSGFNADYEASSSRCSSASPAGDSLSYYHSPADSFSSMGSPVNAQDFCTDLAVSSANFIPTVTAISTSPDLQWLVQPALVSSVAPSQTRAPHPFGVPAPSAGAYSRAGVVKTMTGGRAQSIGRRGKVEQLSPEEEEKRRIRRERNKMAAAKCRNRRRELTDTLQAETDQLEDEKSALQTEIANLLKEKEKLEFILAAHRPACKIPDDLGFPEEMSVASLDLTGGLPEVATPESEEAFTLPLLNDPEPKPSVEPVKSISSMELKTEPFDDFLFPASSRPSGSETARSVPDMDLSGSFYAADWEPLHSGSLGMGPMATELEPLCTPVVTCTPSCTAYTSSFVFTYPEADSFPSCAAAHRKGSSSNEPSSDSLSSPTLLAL
For test [5], the target named is T4, Full-length ETV4 Glu373Ala (UniProt P43268 1-484, Glu373Ala).
T4 sequence (looked up): T1 sequence (looked up) with E373A

B1: MED25 ACID (residues 391–553), biotinylated ligand for biolayer interferometry (domain or fragment, human, UniProt Q71SY5 391-553, looked up)
chain: GQQSVSNKLLAWSGVLEWQEKPKPASVDANTKLTRSLPCQVYVNHGENLKTEQWPQKLIMQLIPQQLLTTLGPLFRNSRMVQFHFTNKDLESLKGLYRIMGNGFAGCVHFPHTAPCEVRVLMLLYSSKKKIFMGLIPYDQSGFVNGIRQVITNHKQVQQQKLE
modifications: biotin (biotinylated; D-biotin added at the induction point)
A word on the Kd: it is the constant that tells how readily two partners part at equilibrium. A high value points to lower affinity. Consider B1, for which the Kd in test [1] worked out at 5 nM; in test [4] it was 9 nM. For the same molecule, the binding result in test [2], in test [3] and in test [5] was “binds” throughout.
